We go through four molecules from patent US20250051465A1 (published 2025).

The target of assay [1] is T1, full length human LEPR on cells (human, UniProt P48357 22-1165).
T1 sequence: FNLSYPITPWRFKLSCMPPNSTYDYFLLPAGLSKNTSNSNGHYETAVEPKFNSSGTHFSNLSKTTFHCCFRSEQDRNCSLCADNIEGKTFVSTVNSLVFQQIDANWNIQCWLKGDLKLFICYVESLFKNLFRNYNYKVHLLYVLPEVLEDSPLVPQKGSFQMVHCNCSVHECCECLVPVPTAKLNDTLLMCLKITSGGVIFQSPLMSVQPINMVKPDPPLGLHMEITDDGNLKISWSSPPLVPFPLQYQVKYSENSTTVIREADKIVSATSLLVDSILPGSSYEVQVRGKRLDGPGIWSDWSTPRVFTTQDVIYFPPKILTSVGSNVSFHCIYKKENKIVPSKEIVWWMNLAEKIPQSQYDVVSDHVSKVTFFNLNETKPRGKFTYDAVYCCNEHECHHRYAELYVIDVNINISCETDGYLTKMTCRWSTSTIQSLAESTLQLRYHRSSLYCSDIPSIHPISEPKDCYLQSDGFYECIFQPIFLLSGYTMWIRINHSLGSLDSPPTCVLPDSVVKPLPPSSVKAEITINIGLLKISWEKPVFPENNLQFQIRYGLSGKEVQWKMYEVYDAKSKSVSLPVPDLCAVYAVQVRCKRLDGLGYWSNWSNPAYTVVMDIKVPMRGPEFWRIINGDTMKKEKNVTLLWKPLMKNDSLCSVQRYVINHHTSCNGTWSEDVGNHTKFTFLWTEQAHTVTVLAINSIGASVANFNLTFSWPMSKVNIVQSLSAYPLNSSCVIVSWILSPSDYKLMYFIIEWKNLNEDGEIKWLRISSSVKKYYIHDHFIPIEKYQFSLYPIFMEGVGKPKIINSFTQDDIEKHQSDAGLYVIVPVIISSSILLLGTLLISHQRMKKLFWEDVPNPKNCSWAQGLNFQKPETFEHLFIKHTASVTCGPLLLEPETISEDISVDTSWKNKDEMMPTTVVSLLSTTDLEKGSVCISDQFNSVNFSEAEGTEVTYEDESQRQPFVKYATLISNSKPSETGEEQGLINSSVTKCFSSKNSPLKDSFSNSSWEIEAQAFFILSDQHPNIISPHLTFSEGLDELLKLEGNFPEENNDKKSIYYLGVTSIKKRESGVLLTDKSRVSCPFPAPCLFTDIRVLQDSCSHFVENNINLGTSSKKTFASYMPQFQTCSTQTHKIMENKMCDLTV
Briefly: cell-based or functional assay.

Assay [2] concerns the target T2, human LEPR extracellular domain expressed with a C-terminal myc-myc-hexahistidine tag (hLEPR.mmh) (human, UniProt P48357 22-839).
T2 construct: also called human LEPR-MMH; monomeric human LEPR
The experiment in a line: SPR, captured mAb, 25C. As for the experimental part:
(§1) Equilibrium dissociation constants (KD values) for LEPR binding to purified anti-LEPR monoclonal antibodies were determined using a real-time surface plasmon resonance biosensor using a Biacore 4000 instrument. All binding studies were performed in 10 mM HEPES, 150 mM NaCl, 3 mM EDTA, and 0.05% v/v Surfactant Tween-20, pH 7.4 (HBS-ET) running buffer at 25° C. and 37° C. The Biacore sensor surface was first derivatized by amine coupling with a monoclonal mouse anti-human Fc antibody (GE, #BR-1008-39) to capture anti-LEPR monoclonal antibodies. […] Kinetic association (kₐ) and dissociation (kd) rate constants were determined by fitting the real-time binding sensorgrams to a 1:1 binding model with mass transport limitation using Scrubber 2.0c curve-fitting software. Binding dissociation equilibrium constants (KD) and dissociative half-lives (t½) were calculated from the kinetic rate constants as: […]
For orientation: Surface plasmon resonance follows binding to a sensor surface in real time, without labels.

The target of assay [3] is T3, human LEPR extracellular domain expressed with a C-terminal mouse IgG2a Fc tag (hLEPR.mFc) (human).
T3 construct: also called dimeric human LEPR
T3 chain: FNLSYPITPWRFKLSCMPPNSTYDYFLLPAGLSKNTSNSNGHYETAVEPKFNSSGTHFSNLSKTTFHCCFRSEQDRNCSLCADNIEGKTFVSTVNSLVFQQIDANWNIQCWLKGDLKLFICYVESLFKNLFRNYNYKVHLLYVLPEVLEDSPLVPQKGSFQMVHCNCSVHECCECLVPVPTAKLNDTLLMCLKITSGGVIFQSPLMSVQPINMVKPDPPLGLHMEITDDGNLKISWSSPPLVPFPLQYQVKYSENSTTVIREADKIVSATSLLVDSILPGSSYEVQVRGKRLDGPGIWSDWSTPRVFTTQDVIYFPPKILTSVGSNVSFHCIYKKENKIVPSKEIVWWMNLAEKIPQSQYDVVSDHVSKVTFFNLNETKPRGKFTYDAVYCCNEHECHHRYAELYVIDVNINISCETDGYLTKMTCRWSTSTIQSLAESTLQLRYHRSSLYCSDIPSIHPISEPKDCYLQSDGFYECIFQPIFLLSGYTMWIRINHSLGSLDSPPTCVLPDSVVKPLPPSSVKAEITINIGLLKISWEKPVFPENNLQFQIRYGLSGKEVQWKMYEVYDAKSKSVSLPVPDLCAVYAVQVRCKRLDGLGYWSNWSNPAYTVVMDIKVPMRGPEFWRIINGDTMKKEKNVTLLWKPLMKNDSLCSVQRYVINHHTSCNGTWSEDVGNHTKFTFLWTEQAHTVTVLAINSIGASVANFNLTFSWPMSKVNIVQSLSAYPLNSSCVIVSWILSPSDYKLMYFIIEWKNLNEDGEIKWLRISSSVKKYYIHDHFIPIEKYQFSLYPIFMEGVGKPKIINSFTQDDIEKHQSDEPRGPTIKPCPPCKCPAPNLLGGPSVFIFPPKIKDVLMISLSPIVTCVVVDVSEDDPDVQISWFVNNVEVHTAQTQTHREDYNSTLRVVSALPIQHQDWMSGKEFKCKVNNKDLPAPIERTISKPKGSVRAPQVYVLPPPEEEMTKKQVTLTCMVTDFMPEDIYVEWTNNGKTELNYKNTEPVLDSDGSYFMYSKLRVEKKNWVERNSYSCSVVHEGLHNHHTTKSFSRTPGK
The experiment in a line: SPR, captured mAb, 25C. As for the experimental part: as §1

Assay [4] deals with T4, Macaca fascicularis LEPR extracellular domain expressed with a C-terminal myc-myc-hexahistidine tag … (Macaca fascicularis, UniProt Q9MYL0 22-837 (rhesus entry)).
T4 construct: also called mfLEP.MMH
Briefly: SPR, captured mAb, 25C. As for the experimental part:
as §1

B1: H4H16679P2 (antibody, human IgG4, V domains shown)
VH: QVQLVESGGGVVQPGRSLRLSCTASGFTFSSYAMYWVRQAPGKGLEWVSVIYYDGSYKYYADSVKGRFTISRDNSKNTLYLQMDSLRAEDTAVYYCASYNWNYWYFDFWGRGTLVTVSS
VL: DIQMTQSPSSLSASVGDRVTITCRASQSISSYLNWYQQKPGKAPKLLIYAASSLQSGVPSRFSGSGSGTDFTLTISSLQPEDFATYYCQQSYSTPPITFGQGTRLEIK
notes: Fully human antibody with human IgG4 Fc (H4H prefix)
With B1, in assay [1], the “% activation, with 200 pM human Leptin” value amounted to 88%; the “% activation, without human Leptin” value is 65%; the “EC50, STAT3-Luc reporter, with 200 pM human Leptin” value (“EC50 … with 200 pM human Leptin” below) turned out to be 7.37e-11 M; the “EC50, STAT3-Luc reporter, without human Leptin” value (“EC50 … without human Leptin” for short) was found to be 0.0862 nM. Moreover, in assay [2], the “100 nM hLEPR-MMH Bound (RU)” value was determined as 39 RU, the Kd was found to be 10.5 nM, the koff was determined as 0.000246 s⁻¹ and the kon amounted to 23400 M⁻¹ s⁻¹. This molecule also came in with a t½ in assay [2] of 47 min. Moreover, in assay [3], the “100 nM hLEPR-mFc Bound (RU)” value is 78 RU, binding was characterised by a dissociation constant (Kd) of 1.66 nM, the dissociation rate constant (koff) was 9.68e-05 s⁻¹ and the kon was 58400 M⁻¹ s⁻¹. In assay [3], the t½ came out at 119 min. For the same molecule, in assay [4], the “100 nM mfLEP.MMH Bound (RU)” value is 66 RU, the Kd turned out to be 3.22 nM, the koff turned out to be 0.000141 s⁻¹ and the kon was 43700 M⁻¹ s⁻¹. The t½ in assay [4] stood at 82 min.

B2: H4H17321P2 (antibody, human IgG4, V domains shown)
VH: QVQLVESGGGVVQPGRSLRLSCEASGFSSSDNAMYWVRQAPGKGLEWVSVIYHDGSYKYYEDSVKGRFTIARDNSKNTLYLQMNSLRAEDTAVYYCARYNWNHWYFDVWGRGTLVTVSS
VL: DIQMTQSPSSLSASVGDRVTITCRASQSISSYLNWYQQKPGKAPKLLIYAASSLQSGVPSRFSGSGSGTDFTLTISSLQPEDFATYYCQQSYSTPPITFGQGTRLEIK
notes: as for B1
As to B2, in assay [1], the “% activation, with 200 pM human Leptin” value amounted to 76%; the “% activation, without human Leptin” value turned out to be 66%; the “EC50 … with 200 pM human Leptin” value was 2.57e-10 M; the “EC50 … without human Leptin” value was 0.207 nM. Also, in assay [2], the “100 nM hLEPR-MMH Bound (RU)” value came out at 32 RU, the Kd worked out at 8.31 nM, the koff stood at 0.000196 s⁻¹ and the kon stood at 23600 M⁻¹ s⁻¹. In assay [2], this molecule yielded a t½ of 59 min. Also, in assay [3], the “100 nM hLEPR-mFc Bound (RU)” value was 65 RU; the affinity, expressed as Kd, was 2.18 nM; the koff was determined as 8.93e-05 s⁻¹; the kon came out at 41000 M⁻¹ s⁻¹. Besides, the t½ in assay [3] came to 129 min. Moreover, in assay [4], the “100 nM mfLEP.MMH Bound (RU)” value was 75 RU, the Kd came out at 4.07 nM, the off-rate constant (koff) amounted to 0.000133 s⁻¹ and the kon came to 32600 M⁻¹ s⁻¹. Besides, in assay [4], the t½ worked out at 87 min.

B3: H4H18446P2 (antibody, human IgG4, V domains shown)
VH: EVQLVESGGGLVQPGGSLRLSCAASGFTFSNYGMTWVRQAPGKGLEWVSAITGGGGSTYYSNSVKGRFTISRDNSKNTVYLRMNSVRAEDTAVYYCAKYKWNFVDDWGQGTTVTVSS
VL: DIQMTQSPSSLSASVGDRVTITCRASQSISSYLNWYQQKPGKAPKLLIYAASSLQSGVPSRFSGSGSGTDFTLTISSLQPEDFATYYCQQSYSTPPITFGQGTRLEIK
notes: as for B1
Regarding B3, in assay [1], the “% activation, with 200 pM human Leptin” value is 68%; the “% activation, without human Leptin” value was determined as 6%; the “EC50 … with 200 pM human Leptin” value amounted to 3.42e-11 M; the “EC50 … without human Leptin” value was 0.373 nM. For the same molecule, in assay [2], the “100 nM hLEPR-MMH Bound (RU)” value worked out at 16 RU, binding was characterised by a dissociation constant (Kd) of 52.5 nM, the koff was 0.000951 s⁻¹ and the kon worked out at 18100 M⁻¹ s⁻¹. For the same molecule, in assay [2], the t½ stood at 12 min. Besides, in assay [3], the “100 nM hLEPR-mFc Bound (RU)” value was determined as 20 RU; the affinity, expressed as Kd, was 6.48 nM; the koff worked out at 0.000208 s⁻¹; the kon is 32000 M⁻¹ s⁻¹. In assay [3], this molecule gave a t½ of 56 min. In assay [4], the “100 nM mfLEP.MMH Bound (RU)” value turned out to be 23 RU, the Kd came out at 58.3 nM, the koff was 0.00112 s⁻¹ and the kon was found to be 19300 M⁻¹ s⁻¹. The t½ in assay [4] turned out to be 10 min.

B4: H4H17319P2 (antibody, human IgG4, V domains shown)
VH: QVQLVESGGSVVQPGRSLRLSCAASGFTFSTYAMYWVRQTPGKGLEWVAVLYSDGSNKYYIDSVKGRFTISRDTSTNTLYLQMSSLRADDSALYYCARLNWDYWYFDLWGRGTLVTVSS
VL: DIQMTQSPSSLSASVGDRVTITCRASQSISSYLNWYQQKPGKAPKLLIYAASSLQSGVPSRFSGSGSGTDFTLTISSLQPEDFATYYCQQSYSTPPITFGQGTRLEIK
notes: as for B1
Turning to B4, in assay [1], the “% activation, with 200 pM human Leptin” value came to 76%; the “% activation, without human Leptin” value is 68%; the “EC50 … with 200 pM human Leptin” value is 1.91e-10 M; the “EC50 … without human Leptin” value amounted to 0.187 nM. Further, in assay [2], the “100 nM hLEPR-MMH Bound (RU)” value was determined as 36 RU, binding was characterised by a dissociation constant (Kd) of 20.3 nM, the koff stood at 0.000529 s⁻¹ and the kon is 26100 M⁻¹ s⁻¹. This molecule registered a t½ in assay [2] of 22 min. In assay [3], the “100 nM hLEPR-mFc Bound (RU)” value is 69 RU, the Kd came out at 3.45 nM, the koff was determined as 0.000164 s⁻¹ and the kon was 47700 M⁻¹ s⁻¹. In addition, the t½ in assay [3] worked out at 70 min. For the same molecule, in assay [4], the “100 nM mfLEP.MMH Bound (RU)” value was 83 RU, binding was characterised by a dissociation constant (Kd) of 11.6 nM, the koff turned out to be 0.000463 s⁻¹ and the kon was determined as 40000 M⁻¹ s⁻¹. In assay [4], this molecule gave a t½ of 25 min.

One may read the Kd as the constant that tells how readily two partners part at equilibrium. A lower Kd goes with tighter binding. Usually koff stands for the rate constant with which the complex falls apart. Low values mean slow dissociation, high ones fast dissociation. What is called kon is the rate constant with which the complex forms. Read a low kon as slower complex formation. In general, t½ refers to the time needed for the level to fall by half in the phase considered.
